According to article PMC5959871, “Bacterial encapsulins as orthogonal compartments for mammalian cell engineering” (Nature Communications, 2018):

B1: Encapsulin cargo protein C, non-tagged, from the multi-gene construct BCDP2A (natural protein, Myxococcus xanthus, UniProt Q1D3Y8 1-130, looked up)
chain: MPQTNPFHSLVPRKMTDTELARSIRLNIEAELDAINLYAAHIDATDNEDAKAILQHVMDEEREHAALFWELIARLDPEQAAHAKEAVEKYRLITSGASHEAVEAVGKEGAAPSPADVTPEKRLTVGSLRR
notes: MxEncC, ferritin-like native cargo protein of Myxococcus xanthus encapsulin, expressed from a single reading frame with B and D separated by P2A peptides; P2A skipping probably leaves residues of the P2A peptide on the proteins; also called MxEncC; EncC
B2: Encapsulin cargo protein D, non-tagged, from the multi-gene construct BCDP2A (natural protein, Myxococcus xanthus, UniProt Q1D9P3 1-109, looked up)
chain: MAKNSNPSAFDRDFGYLMPFLDRVAAAASDLEDASARAELTRLMVEEKARWQRIQELLGGAGGRGAAAPTPAREAPAEAPRLARGSADELHEAAPFATGLTVGSLRGSR
notes: MxEncD, native cargo protein of Myxococcus xanthus encapsulin, expressed from a single reading frame with B and C separated by P2A peptides; P2A skipping probably leaves residues of the P2A peptide on the proteins; also called MxEncD; EncD
B3: Encapsulin cargo protein B, non-tagged, from the multi-gene construct BCDP2A (natural protein, Myxococcus xanthus, UniProt Q1D6H3 1-158, looked up)
chain: MAGPPDSDLDDVARIRLVLARELETINEYEAYARASSNPEVRAFFQHLAAEEKEHVSEAVHMLRMLDSGQNDHFAKPFVPGHFQAAEAPAPATVHVPTPDGPAFSVNGRNGRLPSEPPTSLPPQRLLYGLPAPPPAVESHPLTVGSLRRGGGGSGSGR
notes: MxEncB, ferritin-like native cargo protein of Myxococcus xanthus encapsulin, expressed from a single reading frame with C and D separated by P2A peptides; P2A skipping probably leaves residues of the P2A peptide on the proteins; also called MxEncB; EncB

Target: T1, MxEncA^FLAG, encapsulin shell protein A from Myxococcus xanthus with C-terminal FLAG tag (Myxococcus xanthus, UniProt Q1D6H4 1-287)
T1 construct: MxEncA, encapsulin shell protein of Myxococcus xanthus, mammalian codon-optimized synthetic gene; A^FLAG printed as 32.9 kDa; Assembles into shells of 60 (T = 1) or 180 (T = 3) subunits; also called nanoshell; source: also purified by anti-FLAG beads and FLAG-peptide elution; not shown: FLAG, C-terminal, kept
Test: native gel or EMSA; Blue Native PAGE (NativePAGE 3-12% Bis-Tris) of material eluted from the anti-FLAG Co-IP or the Strep-Tactin purification; Coomassie or silver stain
Settings: both partners purified

Binding result, binds:
B1
B2
B3
